Results published in US20080038265A1 (published 2008).
Where a chain is given by its changes, count along the chain named.

T1: soluble EpoR (EposR) (human, UniProt P19235 25-250, limits assumed)
T1 construct: Test antigen in BIAcore and in yeast display assays; also called soluble recombinant human EpoR
T1 sequence (looked up): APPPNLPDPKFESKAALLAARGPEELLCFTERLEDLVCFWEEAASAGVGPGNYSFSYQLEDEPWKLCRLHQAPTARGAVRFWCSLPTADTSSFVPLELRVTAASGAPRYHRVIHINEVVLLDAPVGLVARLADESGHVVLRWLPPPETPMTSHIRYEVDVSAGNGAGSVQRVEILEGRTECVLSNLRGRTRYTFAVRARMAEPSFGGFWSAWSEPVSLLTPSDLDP

B1: Ab12 41/WT (scFv)
scFv displayed on yeast: GENKVEYAPALMALSQVQLQESGPGLVKPSETLSLTCTVSGASISSYYWSWIRQPPGKGLEWIGYIYYSGSTNYNPSLKSRVTISVDTSKNQFSLKLRSVTAADTAVYYCARERLGIGDYWGQGTLVTVSSGGGGSGGGGSGGGGSDIQLTQSPSSLSASVGDRVTITCRASQGIRNDLGWYQQKPGKAPKRLIYAASSLQSGVPSRFSGSGSGTEFTLTISSLQPEDFATYYCLQHNTYPPTFGQGTKVEIK
notes: also called Ab12 scFv construct with linker 41 in the tether position and the Gly/Ser linker (WT) in the scFv linker position
B2: Ab12.118 (antibody, IgG2, V domains shown)
VH: QVQLQESGPGLVKPSETLSLTCTVSGASISSYYWSWIRQPPGKGLEWIGYIGYSGSTNYNPSLKSRVTISVDTSKNQFSLKLRSVTAADTAVYYCARERLGIGDYWGQGTLVTVSS
VL: DIQLTQSPSSLSASVGDRVTITCRASQGIRNDLGWYQQKPGKAPKRLIYAASSLQSGVPSRFSGSGSGTEFTLTISSLQPEDFATYYCLQHNTYPPTFGQGTKVEIK
B3: Ab12.119 (antibody, IgG2, V domains shown)
VH: B2 VH with G52Y, Y53G
VL: B2 VL
B4: Ab12.120 (antibody, IgG2, V domains shown)
VH: B2 VH with G52Y, S54E
VL: B2 VL
B5: Ab12.121 (antibody, IgG2, V domains shown)
VH: B2 VH with Y53G
VL: B2 VL
B6: Ab12.122 (antibody, IgG2, V domains shown)
VH: B2 VH with G52Y, Y53G, S54E
VL: B2 VL
B7: Ab12.123 (antibody, IgG2, V domains shown)
VH: B2 VH with S54E
VL: B2 VL
B8: Ab12 (antibody, human IgG2, V domains shown)
VH: B2 VH with G52Y
VL: B2 VL
B9: Ab12.6 (antibody, V domains shown)
VH: B2 VH with Y53G, S54E
VL: B2 VL
B10: Ab12.56 (antibody, IgG2, V domains shown)
VH: B2 VH with G52A, Y53G, S54T
VL: B2 VL

The binders below were run against T1, soluble EpoR (EposR) (assay: yeast surface display, flow cytometry: equilibrium titration of scFv-displaying yeast with soluble EpoR at 37 C, bound EposR detected with MAB307 + anti-mouse RPE).
Procedure: Functional cell surface protein expression was compared by incubating the transformed yeast with increasing concentrations of soluble EpoR (EposR) at 37° C.

B1 was tested, and the “EC50 (read off the curve)” value was ~6 nM.

The binders below were run against human erythropoietin receptor on human erythroleukemic cells (UT-7/Epo, F36E) (human), P19235 (assay: cell-based or functional assay).
Sequence of human erythropoietin receptor on human erythroleukemic cells (UT-7/Epo, F36E) (human), P19235 (P19235 25-508, stated change not applied): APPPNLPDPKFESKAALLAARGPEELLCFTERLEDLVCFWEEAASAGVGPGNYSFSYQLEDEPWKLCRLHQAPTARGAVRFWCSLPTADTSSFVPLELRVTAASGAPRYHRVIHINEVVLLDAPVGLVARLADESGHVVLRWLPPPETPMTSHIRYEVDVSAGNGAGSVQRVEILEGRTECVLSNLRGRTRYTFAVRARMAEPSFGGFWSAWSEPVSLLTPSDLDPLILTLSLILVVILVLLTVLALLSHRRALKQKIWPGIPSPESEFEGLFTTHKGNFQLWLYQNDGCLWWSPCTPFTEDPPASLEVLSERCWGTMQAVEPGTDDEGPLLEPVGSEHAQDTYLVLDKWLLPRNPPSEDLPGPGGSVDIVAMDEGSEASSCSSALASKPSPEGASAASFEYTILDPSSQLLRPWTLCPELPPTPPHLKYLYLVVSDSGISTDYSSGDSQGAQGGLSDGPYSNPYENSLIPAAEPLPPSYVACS

B2 and B3 are within 1.5-fold of each other in EC50, cell proliferation assay: 1.13 nM for the first, 1.34 nM for the second.

B4 and B5 are within 1.5-fold of each other in EC50, cell proliferation assay: 0.34 nM for the first, 0.465 nM for the second.

Going from B6 to B7, the EC50, cell proliferation assay rises from 0.42 nM to 0.91 nM (2.2-fold).

Going from B8 to B9, the EC50, cell proliferation assay falls from 1.29 nM to 0.58 nM (2.2-fold).

In the case of B10, the EC50, cell proliferation assay is reported as 1.17 nM.

Going from B2 to B3, the Emax, cell proliferation assay falls from 2.65 absorbance to 2.53 absorbance.

Compared with B4, B5 is higher in Emax, cell proliferation assay: 2 absorbance for the first, 2.3 absorbance for the second.

Going from B6 to B7, the Emax, cell proliferation assay rises from 2.4 absorbance to 2.7 absorbance.

Compared with B8, B9 is higher in Emax, cell proliferation assay: 1.98 absorbance for the first, 2.81 absorbance for the second.

In the case of B10, the Emax, cell proliferation assay is reported as 2.51 absorbance.
